This is an account of results in article PMC7875338 (ACS synthetic biology, 2021).

This assay has as its target beta-galactosidase (β-gal), negative control expressed in HEK293T cells (Escherichia coli K12 lacZ, assumed, UniProt P00722 = β-galactosidase). Description: immunostaining of cells or tissue.

Positions count from the first letter of the chain named.

beta-galactosidase (β-gal), negative control expressed in HEK293T cells, sequence (P00722 whole entry): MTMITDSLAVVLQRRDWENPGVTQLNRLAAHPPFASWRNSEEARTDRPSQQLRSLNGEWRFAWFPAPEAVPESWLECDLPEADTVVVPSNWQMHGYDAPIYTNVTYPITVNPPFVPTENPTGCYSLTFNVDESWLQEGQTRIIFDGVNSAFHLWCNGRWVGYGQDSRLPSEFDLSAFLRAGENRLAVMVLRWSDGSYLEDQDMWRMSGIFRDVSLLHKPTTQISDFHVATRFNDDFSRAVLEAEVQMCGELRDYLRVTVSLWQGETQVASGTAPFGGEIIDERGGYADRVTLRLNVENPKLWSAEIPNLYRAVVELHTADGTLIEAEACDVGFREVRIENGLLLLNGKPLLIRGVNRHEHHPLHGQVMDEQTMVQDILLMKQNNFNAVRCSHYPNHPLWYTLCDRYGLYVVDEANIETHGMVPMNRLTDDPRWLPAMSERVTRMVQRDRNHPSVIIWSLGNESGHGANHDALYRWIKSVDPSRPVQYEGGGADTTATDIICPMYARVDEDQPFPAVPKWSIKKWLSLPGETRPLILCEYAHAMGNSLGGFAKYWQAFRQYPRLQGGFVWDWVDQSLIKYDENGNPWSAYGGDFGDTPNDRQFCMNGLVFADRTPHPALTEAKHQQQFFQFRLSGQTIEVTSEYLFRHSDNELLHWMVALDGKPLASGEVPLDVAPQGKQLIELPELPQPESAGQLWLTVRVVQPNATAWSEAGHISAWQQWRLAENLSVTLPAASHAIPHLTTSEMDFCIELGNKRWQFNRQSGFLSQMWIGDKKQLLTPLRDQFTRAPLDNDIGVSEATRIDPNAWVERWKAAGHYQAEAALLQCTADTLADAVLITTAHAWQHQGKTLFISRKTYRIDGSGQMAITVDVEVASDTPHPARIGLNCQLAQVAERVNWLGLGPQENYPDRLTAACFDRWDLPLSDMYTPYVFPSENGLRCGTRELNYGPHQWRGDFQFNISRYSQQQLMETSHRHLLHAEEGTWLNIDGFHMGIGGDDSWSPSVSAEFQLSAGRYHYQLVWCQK

B1: sdAb WuN1-APEX2 fusion protein (VHH)
VHH: QVKLQQSGGGLVQAGGSLRLSCAPSGRTFSVNAMGWYRQAPGKQREPVALISTGGSTNYADSVKGRFTITRDNVKNTVYLQMNTLKPEDTAVYYCYTERWKPRGIERDWGQGTQVTVSS
Consider B1, for which the binding result is given as “no binding (tested: 100 nM)”.

B2: sdAb WuN3-APEX2 fusion protein (VHH)
VHH: B1 VHH with Q1K, A14T, T70S
With B2, the binding result was “no binding (tested: 100 nM)”.
